Experimental findings from article doi:10.1101/2025.08.07.669152 (bioRxiv, 2025) are described below.

B1: Nb 1-22 (VHH)
VHH: HVQLVESGGGLVQPGGSLRLSCAASGRSFNSYLMGWFRQAPGKEREFVAWISGSPHDIIRYRDSVKDRFTISRDNAKNTVYLQMNSLKPVDTAVYYCAVGSLRVGSFSPDYWGQGTQVTVSS
B2: Nb 2-38 (VHH)
VHH: QVQLVESGGGLVQAGGSLRLSCAAAARFSTSAMGWFRQAPGKEREFVAAISWSNTNTHYADTVKGRFTISADTAKETVDLQMNSLKPEDTAVYYCVQGGWGIRQPIIVDYWGKGTQVTVSS
B3: Nb 2-31 (VHH)
VHH: QVQLVESGGGLVQAGESLRLSCAASKPTFRNFAAGWFRQTPGKDREFVAVIEYDGDSAYYADSVKGRFTISRDNAKNTVYLQMNRLKPGDTAVYICAIGGNHYDPSKYYTADEYDYWGQGTQVTVSS
B4: Nb 2-45 (VHH)
VHH: QVQLVESGGGLVQAGGSLRLSCTASGYDFSILAIAWYRQAPGKERELVAAISRVGSTDYADSVKGRFTISRDNTKNTVSLQMDSLKPEDTAVYYCNAGIPMTTVLSGLGFWGQGTQVTVSS

In the assay the target is WT RBD of SARS-CoV-2 (S protein residues 319–539) (SARS-CoV-2, wild type (GenBank …, UniProt P0DTC2)). Put plainly: ELISA. (In general: In an ELISA, binding on a coated surface is turned into a signal by an enzyme label.)
For the molecule B1, the binding result is “binds”. With B2 the entry was “binds”; with B3, “binds”; with B4, “binds”.
